Test results as given in PMC10666288, “Unveiling the Catalytic Mechanism of a Processive Metalloaminopeptidase” (Biochemistry, 2023).

Experiments:
[1] = tested on: CC(C)C[C@H](N)C(=O)Nc1ccc([N+](=O)[O-])cc1; test: purified protein, by the assay type; details: 25.0 °C
[2] = tested on: N=C(N)NCCC[C@H](N)C(=O)Nc1ccc([N+](=O)[O-])cc1; test: purified protein, by the assay type; details: other: aa-pNA varied, 3 mM MnCl2, 100 nM PaPepA, pH 8.0, 25 °C, pH 8.0

PaPepA (Pseudomonas aeruginosa UCBPP-PA14)
Km ([1]; other: 5 % PEG 8000, Leu-pNA varied): 110 µM | Km ([1]; other: H2O (0% PEG-8000), Leu-pNA varied): 86.9 µM | Km [2]: 120 ± 20 µM | kcat [2]: 0.052 s⁻¹ | kcat/Km [2]: 440 M⁻¹ s⁻¹
